# Test results published in patent publication US20230364193A1, “COMBINED DRUG FOR TREATING CORONARIVUS DISEASE 2019” (SICHUAN UNIVERSITY WEST CHINA HOSPITAL, priority 2020, published 2023).
# Read-outs that look alike come from different tables or passages of the source.
# B1: rSIFN-co: new type of genetically engineered interferon produced by changing 65 bases of the genetic code of IFN-α; amino acid sequence SEQ ID NO.2 (protein)
# chain: MCDLPQTHSLGNRRALILLAQMRRISPFSCLKDRHDFGFPQEEFDGNQFQKAQAISVLEMIQQTFNLFSTKDSSAAWDESLLEKFYTELYQQLNDLEACVIQEVGVEETPLMNVDSILAVKKYFQRITLYLTEKKYSPCAWEVVRAEIMRSFSLSTNLQERLRRKE
# modifications: rSIFN-co Synthetic amino acid sequence
# Assays:
# [1] = tested on: patients with moderate or severe COVID-19; conditions: for clinical improvement rate day 28, (%): called clinical remission rate in b66; for Time for clinical improvement (days), median: called clinical remission; for Time for radiographic improvement (days), median: chest CT, absorption of inflammation; for Time for Viral nucleic acid to turn negative (days), median: real-time fluorescence quantitative PCR; for serious adverse reaction (cases): safety analysis set, the IFN-α case was respiratory failure
# [2] = tested on: SARS-CoV-2 virus; conditions: for EC50 Experiment 1 / EC50 Experiment 2 / EC50 Experiment 3 / EC50 means: Vero-E6; for EC50 means: mean of 3 experiments
# [3] = tested on: Vero-E6 cells; assay: Cytotoxicity assay on Vero-E6 cells (CCK-8, 48 hours)
# Description: • 1) Vero-E6 cells were inoculated in a 96-well plate at 1×10^4 cells per well the day before; • 2) The cell state was observed until the confluence reached about 50%. The rSIFN-co was diluted by 2.17-fold with 2×DMEM medium containing 4% […], as the highest concentration, namely 6×10^8 pg/ml.
# The plates were cultured in an incubator at 37° C. and 5% CO2; • 4) 48 hours after adding the drug, 1/10 volume of Cell Counting […] (CCK-8) was directly added to the cell culture medium, mixed well, and air bubbles should be avoided. Cells were incubated in an incubator at 37° C. for 1 hour until the color turned into orange. The blank group was set as zero, and the absorbance at 450 nm was measured with a multifunctional microplate reader, and the survival rate was calculated as follows: survival rate (%)=OD450 of the test group/OD450 of the control group×100%.
# [4] = day 7, percent of group, added to baseline treatment
# [5] = day 14, percent of group, added to baseline treatment
# [6] = day 28, percent of group, added to baseline treatment
molecule,measurement,setting,value
IFN-α,"Radiographic Improvement Rate Day 7, (%)",[1]; Day 7,(25.0) %
same,"Rate for Viral nucleic acid to turn negative Day 7, (%)",[1]; Day 7,(31.3) %
same,"Radiographic Improvement Rate Day 14, (%)",[1]; Day 14,(66.7) %
same,"Rate for Viral nucleic acid to turn negative Day 14, (%)",[1]; Day 14,(64.6) %
same,"Radiographic Improvement Rate Day 28, (%)",[1]; Day 28,(79.2) %
same,"Rate for Viral nucleic acid to turn negative Day 28, (%)",[1]; Day 28,(85.4) %
same,"clinical improvement rate day 7, (%)",[1]; day 7,(6.3) %
same,"7-level scale on day 7, 2: Not hospitalized, but unable to return to normal activities, (%)",[1]; [4],(12.5) %
same,"7-level scale on day 7, 3: Hospitalized, no need for supplemental oxygen, (%)",[1]; [4],(25.0) %
same,"7-level scale on day 7, 4: Hospitalized, requiring supplemental oxygen, (%)",[1]; [4],(43.8) %
same,"7-level scale on day 7, 5: Hospitalized, requiring nasal high-flow oxygen therapy or non-invasive mechanical ventilation, (%)",[1]; [4],(16.7) %
same,"7-level scale on day 7, 6: Hospitalized, requiring extracorporeal membrane oxygenation, invasive mechanical ventilation, or both, (%)",[1]; [4],(2.0) %
same,"clinical improvement rate day 14, (%)",[1]; day 14,(39.6) %
same,"7-level scale on day 14, 2: Not hospitalized, but unable to return to normal activities, (%)",[1]; [5],(43.8) %
same,"7-level scale on day 14, 3: Hospitalized, no need for supplemental oxygen, (%)",[1]; [5],(31.2) %
same,"7-level scale on day 14, 4: Hospitalized, requiring supplemental oxygen, (%)",[1]; [5],(16.7) %
same,"7-level scale on day 14, 5: Hospitalized, requiring nasal high-flow oxygen therapy or non-invasive mechanical ventilation, (%)",[1]; [5],(6.3) %
same,"7-level scale on day 14, 6: Hospitalized, requiring extracorporeal membrane oxygenation, invasive mechanical ventilation, or both, (%)",[1]; [5],(2.0) %
same,"clinical improvement rate day 28, (%)",[1]; day 28,77.1%
same,"clinical improvement rate day 28, (%)","[1]; day 28, listed as IFN- α",(77.1) %
same,"7-level scale on day 28, 2: Not hospitalized, but unable to return to normal activities, (%)",[1]; [6],(91.6) %
same,"7-level scale on day 28, 3: Hospitalized, no need for supplemental oxygen, (%)",[1]; [6],(2.1) %
same,"7-level scale on day 28, 4: Hospitalized, requiring supplemental oxygen, (%)",[1]; [6],(4.2) %
same,"7-level scale on day 28, 6: Hospitalized, requiring extracorporeal membrane oxygenation, invasive mechanical ventilation, or both, (%)",[1]; [6],(2.1) %
same,"Deterioration rate, (%)","[1]; human, in vivo",(2.1) %
same,"Time for clinical improvement (days), median",[1]; added to baseline treatment,14.0 days
same,"Time for radiographic improvement (days), median",[1],10.0 days
same,"Time for Viral nucleic acid to turn negative (days), median",[1],10.0 days
same,serious adverse reaction (cases),[1],1
B1,TI (CC50/EC50),[2]; MOI: 0.005 (50 PFU),5.35×10^7
same,EC50 Experiment 1,[2]; MOI: 0.005 (50 PFU),0.01531 ng/mL
same,EC50 Experiment 2,[2]; MOI: 0.005 (50 PFU),0.01401 ng/mL
same,EC50 Experiment 3,[2]; MOI: 0.005 (50 PFU),0.01058 ng/mL
same,EC50 means,[2]; MOI: 0.005 (50 PFU),0.0133 ng/mL
same,TI (CC50/EC50),"[2]; MOI: 0.005 (50 PFU), listed as Recombinant super-compound interferon (rSIFN-co)",5.35 × 10^7
same,TI (CC50/EC50),[2]; MOI: 0.05 (500 PFU),5.77×10^6
same,EC50 Experiment 1,[2]; MOI: 0.05 (500 PFU),0.1418 ng/mL
same,EC50 Experiment 2,[2]; MOI: 0.05 (500 PFU),0.1257 ng/mL
same,EC50 Experiment 3,[2]; MOI: 0.05 (500 PFU),0.1024 ng/mL
same,EC50 means,[2]; MOI: 0.05 (500 PFU),0.1233 ng/mL
same,TI (CC50/EC50),"[2]; MOI: 0.05 (500 PFU), listed as Recombinant super-compound interferon (rSIFN-co)",5.77 × 10^6
same,TI (CC50/EC50),[2]; MOI: 0.5 (5000 PFU),4.71×10^6
same,EC50 Experiment 1,[2]; MOI: 0.5 (5000 PFU),0.1886 ng/mL
same,EC50 Experiment 2,[2]; MOI: 0.5 (5000 PFU),0.1397 ng/mL
same,EC50 Experiment 3,[2]; MOI: 0.5 (5000 PFU),0.1253 ng/mL
same,EC50 means,[2]; MOI: 0.5 (5000 PFU),0.1512 ng/mL
same,TI (CC50/EC50),"[2]; MOI: 0.5 (5000 PFU), listed as Recombinant super-compound interferon (rSIFN-co)",4.71 × 10^6
same,inhibition of SARS-CoV-2 replication in Vero-E6 cell model,[2]; result in words,dose-dependent manner
same,CC50 Experiment 1,[3],651000 ng/mL
same,CC50 Experiment 2,[3],806000 ng/mL
same,CC50 Experiment 3,[3],680000 ng/mL
same,CC50 means,[3]; mean of 3 experiments,712000 ng/mL
same,"Radiographic Improvement Rate Day 7, (%)",[1]; Day 7,(43.5) %
same,"Rate for Viral nucleic acid to turn negative Day 7, (%)",[1]; Day 7,(50.0) %
same,"Radiographic Improvement Rate Day 7, differences (rate difference)","[1]; Day 7, rSIFN-co vs IFN-α",18.5
same,"Rate for Viral nucleic acid to turn negative Day 7, differences (rate difference)","[1]; Day 7, rSIFN-co vs IFN-α",18.7
same,"Radiographic Improvement Rate Day 14, (%)",[1]; Day 14,(84.8) %
same,"Rate for Viral nucleic acid to turn negative Day 14, (%)",[1]; Day 14,(76.1) %
same,"Radiographic Improvement Rate Day 14, differences (rate difference)","[1]; Day 14, rSIFN-co vs IFN-α",18.1
same,"Rate for Viral nucleic acid to turn negative Day 14, differences (rate difference)","[1]; Day 14, rSIFN-co vs IFN-α",11.5
same,"Radiographic Improvement Rate Day 28, (%)",[1]; Day 28,(91.3) %
same,"Rate for Viral nucleic acid to turn negative Day 28, (%)",[1]; Day 28,(97.8) %
same,"Radiographic Improvement Rate Day 28, differences (rate difference)","[1]; Day 28, rSIFN-co vs IFN-α",12.1
same,"Rate for Viral nucleic acid to turn negative Day 28, differences (rate difference)","[1]; Day 28, rSIFN-co vs IFN-α",12.4
same,"clinical improvement rate day 7, (%)",[1]; day 7,(10.9) %
same,"7-level scale on day 7, 2: Not hospitalized, but unable to return to normal activities, (%)",[1]; [4],(13.0) %
same,"7-level scale on day 7, 3: Hospitalized, no need for supplemental oxygen, (%)",[1]; [4],(19.6) %
same,"7-level scale on day 7, 4: Hospitalized, requiring supplemental oxygen, (%)",[1]; [4],(50.0) %
same,"7-level scale on day 7, 5: Hospitalized, requiring nasal high-flow oxygen therapy or non-invasive mechanical ventilation, (%)",[1]; [4],(17.4) %
same,"clinical improvement rate day 7, differences (rate difference)","[1]; day 7, rSIFN-co vs IFN-α",4.6
same,"clinical improvement rate day 14, (%)",[1]; day 14,(65.2) %
same,"7-level scale on day 14, 2: Not hospitalized, but unable to return to normal activities, (%)",[1]; [5],(58.7) %
same,"7-level scale on day 14, 3: Hospitalized, no need for supplemental oxygen, (%)",[1]; [5],(21.7) %
same,"7-level scale on day 14, 4: Hospitalized, requiring supplemental oxygen, (%)",[1]; [5],(17.4) %
same,"7-level scale on day 14, 5: Hospitalized, requiring nasal high-flow oxygen therapy or non-invasive mechanical ventilation, (%)",[1]; [5],(2.2) %
same,"clinical improvement rate day 14, differences (rate difference)","[1]; day 14, rSIFN-co vs IFN-α",25.6
same,"7-level scale on day 28, 2: Not hospitalized, but unable to return to normal activities, (%)",[1]; [6],(95.6) %
same,"7-level scale on day 28, 3: Hospitalized, no need for supplemental oxygen, (%)",[1]; [6],(2.2) %
same,"7-level scale on day 28, 4: Hospitalized, requiring supplemental oxygen, (%)",[1]; [6],(2.2) %
same,"clinical improvement rate day 28, differences (rate difference)","[1]; day 28, rSIFN-co vs IFN-α",16.4
same,"Time for clinical improvement (days), median",[1]; added to baseline treatment,11.5 days
same,"Time for radiographic improvement (days), median",[1],8.0 days
same,"Time for Viral nucleic acid to turn negative (days), median",[1],7.0 days
same,"Deterioration rate, differences (rate difference)",[1]; rSIFN-co vs IFN-α,−2.1
same,"Time for Viral nucleic acid to turn negative, differences (hazard ratio)","[1]; rSIFN-co vs IFN-α, Cox model",1.74
same,"Time for clinical improvement, differences (hazard ratio)","[1]; rSIFN-co vs IFN-α, Cox model",1.76
same,"Time for radiographic improvement, differences (hazard ratio)","[1]; rSIFN-co vs IFN-α, Cox model",2.19
same,serious adverse reaction (cases),[1],no serious adverse reaction
